# Results as given in the nanobody polyreactivity screen of Harvey et al. (2022).
# Test: yeast display, Sf9 membrane polyspecificity reagent, FACS + sequencing; frameworks hold sequencing errors
# Summary of the method: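 A synthetic nanobody library was expressed on Saccharomyces cerevisiae BJ5465 by galactose induction for 36–48 hours. The library was stained for 1 hour at 4 °C with 10% biotinylated, detergent-solubilized Sf9 membrane reagent and enriched with streptavidin microbeads before FACS. Low and high (top ~1%) gates were set on anti-HA fluorescence for expression and streptavidin fluorescence for reagent binding, and each polyreactivity label reflects the gate of origin.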
row,Sequence,polyreactivity (PSR sort gate)
1,QVQLVESGGGLVQAGGSLRLSCAASGRTFGRYVMGWYRQAPGKERDLVAAITGVGSTKYADSVKGRFTISRDNAKNTVYLQMNSLKPEDTAVYYCAKRYLYDRRHAEYWAANDYWGQGTQVTVSS,low polyreactivity
2,QVQLVESGGGLVQAGGSLRLSCAASGRTFGSNAMGRYRQAPGKDRELVAAISVRGGRTYYADSVKGRFTISRDIAKNTGYLQMNSLKPEDTAVYYCNAVYRTYEYYWGQGTQVTVSS,high polyreactivity
3,QVQLVESGGGLVQAGGSLRLSCAASGRTFGSYAMGWYRQAPGKERELVAAIRYRGGSTYYADSVKGRFTISRDNAKNTVYLQMNSLKPEDTAVYYCAAKQGRYNIYSNYDYWGQGTQVTVSS,high polyreactivity
4,QVQLVESGGGLVQAGGSLRLSCAASGRTFGTNAMGRYRKAPGKERELVAAITWRGGSTSYADSEKGRFTISRDNAKNSVYFQMNSLKPEDPAVYYCAVRLRYPGNTFYYLGQGTQVTVSS,high polyreactivity
5,QVQLVESGGGLVQAGGSLRLSCAASGRTFGTNTKGWSRQAPGKERELVAAISSRGGTTYYADSVKGRFTISRDNAKNTVYLQMYSLKPEDTAVYYCNRARSSSRYDYWGQGTQVTVSS,low polyreactivity
6,QVQLVESGGGLVQAGGSLRLSCAASGRTFGTYAIGWYRQAPGKERELVAAITGSGDRTYYADSVKGRFTISRDNAKNTVYLQMNSLKPEDTAVYYCAAYSDRSYGFWGQGTQVTVSS,low polyreactivity
7,QVQLVESGGGLVQAGGSLRLSCAASGRTFGTYAMGWYRQAPGKERELVAAIRSNAGSTYYADSVKGRFTISRDNAKNTVYLQMNSLKPEDTAVYYCAKSYRSSRRYNYWGQGTQVTVSS,high polyreactivity
8,QVQLVESGGGLVQAGGSLRLSCAASGRTFGTYAMGWYRQAPGKERELVAAITGSGDRTYYADSVKGRFTISRDNAKNTVYLQMNSLKPEDTAVYYCAAYSDRSYGYWGQGTQVTVSS,low polyreactivity
9,QVQLVESGGGLVQAGGSLRLSCAASGRTFGTYAMGWYRQAPGKERELVASITSGDSTNYADSVKGRFTISRDYAKNTVYLQMNSLKPEDTAVYYCNARGDVIVTPPKFSFNYEYWGQGTQVTVSS,low polyreactivity
10,QVQLVESGGGLVQAGGSLRLSCAASGRTFGVYAMGWYRQAPGKERELVAAITWSGGSTYYADSVKGRFTISRDNAKNTVYLQMNSLKPEDTAVYYCAADNWYKKQKRPSAYDYWGQGTQVTVSS,high polyreactivity
11,QVQLVESGGGLVQAGGSLRLSCAASGRTFGVYAMGWYRQAPGKERELVARIRYSGGTTRYADSVKGRFTISRDNAKNTVYLQMNSLKPEDTAVYYCAATNWWGTEYDYWGQGTQVTVSS,high polyreactivity
12,QVQLVESGGGLVQAGGSLRLSCAASGRTFGVYAMGWYRQAPGKERELVATITSVDRTNYADSVKGRFTISRDNAKNTVYLQMNSLKPEDTAVYYCAAVGRWPRYYYWGQGTQVTVSS,high polyreactivity
13,QVQLVESGGGLVQAGGSLRLSCAASGRTFGVYAMGWYRQATGKERELVAGIRWRGGSTYYADSVKGRFTISRDNAKNTVYLQMNSLKPEDTAVYYCAAKVYYLYDSIWAWVIIRYDYWGQGTQVTVSS,low polyreactivity
14,QVQLVESGGGLVQAGGSLRLSCAASGRTFGWYAMGWYRQAPGKERELVAAINNSGDITYYADSVKGRFTISRDNAKNTVYLQMNRLKPEDTAVYYCAKDNGRAYFGPSPYDYWGQGTQVTVSS,low polyreactivity
15,QVQLVESGGGLVQAGGSLRLSCAASGRTFGYNAMGWYRQAPGKERELVAAIRYSGGSTYYADSVKGRFTISRDNAKNTVYLQMNSLKPEDTAVYYCAAYCLFSSYGYDYWGQGTQVTVSS,high polyreactivity
16,QVQLVESGGGLVQAGGSLRLSCAASGRTFGYNAMGWYRQAPGKVRELVAAITSGGSTYYADSVKGRFTISRDNAKNTVYLQMNSLKPEDTAVYYCNARYPGFWSGWEEYWGQGTQVTVSS,high polyreactivity

row,Sequence,polyreactivity (PSR sort gate)
1,QVQLVESGGGLVQAGGSLRLSCAASGRTFGYNAMGWYSQAPGKERELVAAISWSGGRTYYADSVKGRFTISRDNAKNTVYLQMNSLKPEDTAVYYCAALPSVTNRYYIYGYWGQGTQVTGSS,high polyreactivity
2,QVQLVESGGGLVQAGGSLRLSCAASGRTFGYYAMGWYRQAAGKDREFVAAITAGRGSTYYPDSVKGRFTISRDNAKNTVYLQMNSLKPEETAVYYCNAVPPGRTPVKGNFYYWGQGTQVTVSS,high polyreactivity
3,QVQLVESGGGLVQAGGSLRLSCAASGRTFGYYAMGWYRQAPGKERELVAAISRSGGSTYYADSVKGRFTISGDNAKNTVYLQMNSLKPEDTAVYYCAVKGYVKSDYWGQGTQVTVSS,high polyreactivity
4,QVQLVESGGGLVQAGGSLRLSCAASGRTFGYYAMGWYRQAPGKERELVAAISSAGSSTYYADSVKGRFTISRDNAKNTVYLQMNSLKPEDTAVYYCAASSRSFIRVYYWGQGTQVTVSS,high polyreactivity
5,QVQLVESGGGLVQAGGSLRLSCAASGRTFGYYAMGWYRQAPGKERELVAAISTSGGGTYYADSVKGRFTISRDNAKYTVYLQMNSLKPVDTAVYYCARDRNTRYKFDYWGQGTQVTLSS,low polyreactivity
6,QVQLVESGGGLVQAGGSLRLSCAASGRTFGYYAMGWYRQAPGKERELVAAISWRGTSTYYADSVKGRFTISRDNAKNTVYLQMNSLKPEDTAVYYCAVGRTVAHRFIAGDYWGQGTQVTVSS,high polyreactivity
7,QVQLVESGGGLVQAGGSLRLSCAASGRTFGYYAMGWYRQAPGKERELVAAISWSGGSTRYADSVKGRFTISRDNAKNTVYFQLNSLKPEDTAVYYCAADSWYSFAGVYRVYGEDYWGQGTQVTVSS,high polyreactivity
8,QVQLVESGGGLVQAGGSLRLSCAASGRTFGYYGMGWYRQAPGKERELVAAITGSGGSTYYADSVKGRFTISRDNAKNTVYLQMNSLKPEDTAVYYCAATYLSRWTLYDYWGQGTQVTVSS,high polyreactivity
9,QVQLVESGGGLVQAGGSLRLSCAASGRTFGYYRMGWYRQAPGKERELVAAITGSGGSTYYADSVKGRFTISRDNAKNTVYLQMNSLKAEDTAVYYCAATYLSRWTLYDYWGQGTQVTVSS,high polyreactivity
10,QVQLVESGGGLVQAGGSLRLSCAASGRTFHDNGMGGYRQAPGKERELVAAISWRGGSTNYADSVKGRFTISRDNAKNTVYLQMNSLKPEETAVYFCNRVPRKFGKLDYWGQGTQVTVSS,low polyreactivity
11,QVQLVESGGGLVQAGGSLRLSCAASGRTFHGYAMGWYRQAPGKERELVARINWSDGRTYYADSVKGRFTISRDNAKNTVFLQMNSLKPEDTAVYYCAADKTVSYAPAWYYYWGQGTQVTVSS,low polyreactivity
12,QVQLVESGGGLVQAGGSLRLSCAASGRTFHGYAMGWYRQAPGNEREFVAAISSDGDSTYYADSVKGRFTISRDNAKNTVYLQMNSLKPEDTAVYYCAAERGYHGGGSGLYDYWGQGTQVTVSS,low polyreactivity
13,QVQLVESGGGLVQAGGSLRLSCAASGRTFHINAMGWYRQAPGKERELVAGINSGGSTNYADSVKGRFTISRDNAKNTVYLQMNSLKPEDTAVYYCNAVVKLKYLYYYVEHYYWGQGTQVTVSS,low polyreactivity
14,QVQLVESGGGLVQAGGSLRLSCAASGRTFHKYAMGWLRQAPGKERELVAAITGSGVRTYYADSVKGRFTISRDNAKNTVYLQMNSLKPEDTAVYYCNADSYNRNGDYWGQGTQVTVSS,high polyreactivity
15,QVQLVESGGGLVQAGGSLRLSCAASGRTFHPYAMGWYRQAPGKERELVAVITTSGSSTYYADSVKGRFTISRDNAKNTVYLQMNSLKPEDTAVYYCAALYWRHQAARYYYWGQGTQVTVSS,high polyreactivity
16,QVQLVESGGGLVQAGGSLRLSCAASGRTFHQYAKGWYRQAPGKERELVAAISRSGGRTYYADSVKGRFTISRDNAKNTVYLQMNSLIPEDSAVYYCNRDIGGTSVLDDYWGQGTQVTVSS,low polyreactivity
